{"source": "patent US5041542A", "about": "“Substituted pyrimido[5,4-d]pyrimidine nucleosides” (Nucleic Acid Research Institute, priority 1988, dated 1991)", "substrate": "Nc1ncnc2c1ncn2[C@@H]1O[C@H](CO)[C@@H](O)[C@H]1O", "experiment": "Adenosine kinase inhibition (filter binding assay)", "type": "biochemical, human", "details": "other: adenosine as substrate; 37.0 °C"}
{"protein": "WI-L2 adenosine kinase (Homo sapiens) (protein, added to the cell-free WI-L2 lysate to give 5 μM final assay concentration; endogenous in cells; host or cells: WI-L2 B lymphoblast cells (cell-free lysate)) MAAAEEEPKPKKLKVEAPQALRENILFGMGNPLLDISAVVDKDFLDKYSLKPNDQILAEDKHKELFDELVKKFKVEYHAGGSTQNSIKVAQWMIQQPHKAATFFGCIGIDKFGEILKRKAAEAHVDAHYYEQNEQPTGTCAACITGDNRSLIANLAAANCYKKEKHLDLEKNWMLVEKARVCYIAGFFLTVSPESVLKVAHHASENNRIFTLNLSAPFISQFYKESLMKVMPYVDILFGNETEAATFAREQGFETKDIKEIAKKTQALPKMNSKRQRIVIFTQGRDDTIMATESEVTAFAVLDQDQKEIIDTNGAGDAFVGGFLSQLVSDKPLTECIRAGHYAASIIIRRTGCTFPEKPDFH", "values": [{"measurement": "Km", "result": 0.9, "unit": "µM"}]}
